Biological target: ICP8 (Infected Cell Polypeptide 8, HSV-1 SSB) (herpes simplex virus-1, UniProt P04296 1-1196)
Assay: thermal shift assay

Chain of ICP8 (Infected Cell Polypeptide 8, HSV-1 SSB) (P04296 whole entry): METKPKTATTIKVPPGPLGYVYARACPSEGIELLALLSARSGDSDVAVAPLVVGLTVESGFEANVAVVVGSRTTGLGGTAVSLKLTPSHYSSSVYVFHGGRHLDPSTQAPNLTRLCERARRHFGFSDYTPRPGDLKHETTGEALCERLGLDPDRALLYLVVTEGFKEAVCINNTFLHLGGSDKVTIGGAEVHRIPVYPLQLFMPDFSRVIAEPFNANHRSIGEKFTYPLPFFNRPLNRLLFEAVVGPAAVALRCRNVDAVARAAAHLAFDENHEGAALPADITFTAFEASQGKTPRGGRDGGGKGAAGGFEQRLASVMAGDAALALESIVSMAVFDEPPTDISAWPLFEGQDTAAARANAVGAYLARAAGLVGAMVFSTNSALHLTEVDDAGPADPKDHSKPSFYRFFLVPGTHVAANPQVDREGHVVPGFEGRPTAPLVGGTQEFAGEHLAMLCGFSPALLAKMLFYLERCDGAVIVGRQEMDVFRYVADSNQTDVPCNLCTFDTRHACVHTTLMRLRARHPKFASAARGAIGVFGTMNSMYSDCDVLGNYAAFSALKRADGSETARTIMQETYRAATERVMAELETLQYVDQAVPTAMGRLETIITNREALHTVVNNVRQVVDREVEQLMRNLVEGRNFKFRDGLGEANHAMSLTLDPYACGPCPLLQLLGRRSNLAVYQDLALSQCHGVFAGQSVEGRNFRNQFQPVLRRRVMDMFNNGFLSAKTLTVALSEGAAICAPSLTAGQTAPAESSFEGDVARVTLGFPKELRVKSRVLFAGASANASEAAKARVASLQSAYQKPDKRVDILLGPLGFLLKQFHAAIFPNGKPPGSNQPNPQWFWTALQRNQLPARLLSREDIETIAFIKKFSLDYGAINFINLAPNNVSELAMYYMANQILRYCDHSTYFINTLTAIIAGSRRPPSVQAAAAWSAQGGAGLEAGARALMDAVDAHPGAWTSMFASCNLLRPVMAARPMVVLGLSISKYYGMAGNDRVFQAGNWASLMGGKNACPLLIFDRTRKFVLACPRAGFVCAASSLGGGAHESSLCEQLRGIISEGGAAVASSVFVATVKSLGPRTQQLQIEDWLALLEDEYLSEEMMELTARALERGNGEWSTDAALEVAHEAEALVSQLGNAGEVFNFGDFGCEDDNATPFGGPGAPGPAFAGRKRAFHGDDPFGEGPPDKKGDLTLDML

TTTTTTTTTTTTTTTTTTTT (ssDNA) [(dT)20] was tested, and the Kd was < 1000 nM.
